The numbers were not newly measured in publication PMC10215765, which cites them from elsewhere.

The series concerns the target Band 3 cytoplasmic N-terminal domain (Homo sapiens) (UniProt P02730).
Chain of UniProt P02730 (P02730 1-379): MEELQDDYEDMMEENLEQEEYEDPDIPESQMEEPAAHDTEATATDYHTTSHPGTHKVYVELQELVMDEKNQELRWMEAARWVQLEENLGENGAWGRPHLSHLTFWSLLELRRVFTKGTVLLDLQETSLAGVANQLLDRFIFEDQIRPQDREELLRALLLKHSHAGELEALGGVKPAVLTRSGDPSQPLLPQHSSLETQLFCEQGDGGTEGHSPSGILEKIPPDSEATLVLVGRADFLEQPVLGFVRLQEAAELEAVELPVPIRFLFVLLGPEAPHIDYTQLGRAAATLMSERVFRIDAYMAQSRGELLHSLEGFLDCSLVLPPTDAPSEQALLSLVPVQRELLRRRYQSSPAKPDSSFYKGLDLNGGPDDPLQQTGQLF

With Peroxiredoxin 2 (from UniProt P32119), the Kd (usually the free concentration of one partner at which half of the binding sites on the other are occupied at equilibrium, for simple one-to-one binding) is 34 nM.
